Key:
[1] = target: HDAC7 catalytic domain (residues 449–952) (human) (UniProt Q8WUI4); experiment: ITC; HDAC7 at 50 µM in the cell, 25 °C; 26 injections of 1.5 µl of SMRT(1255–1452) wild type or alanine mutant at 300 µM; 50 mM KH2PO4/K2HPO4 pH 6.5, 100 mM KCl, 1 mM DTT, 1 mM β-ME; Kd values approximate (noise, aggregation of HDAC7)
[2] = target: HDAC7 catalytic domain (residues 449–952), wild type, purified (human) (UniProt Q8WUI4); experiment: ITC; ITC200, HDAC7 50 µM in the cell, SMRT(1255–1452) wild type or alanine mutants 300 µM injected; 50 mM KH2PO4/K2HPO4 pH 6.5, 100 mM KCl, 1 mM DTT, 1 mM β-ME; 25 °C; hampered by precipitation of HDAC7
[3] = target: GST-SMRT (1358–1391) R1381A (human); experiment: pull-down; purified GST-peptide or GST control on glutathione sepharose beads, incubated 2 h at 4 °C with supernatant of an E. coli HDAC7 expression lysate; washes with PBS pH 7.3, 3 mM DTT, 0.05% Tween 20, 500 mM NaCl; anti-His western blot
SMRT(1255-1452) (human) [4] = target: SMRT(1255-1452) (human) (UniProt Q9Y618); experiment: NMR titration; 15N-labelled SMRT(1255-1452) with 0.72, 2.2 and 3.8 molar equivalents of unlabelled wt-HDAC7; relative HSQC peak intensities fitted to a bimolecular binding equation; 25 °C, 50 mM potassium phosphate pH 6.5, 100 mM KCl, 1 mM DTT; rough estimates, HDAC7 precipitated
SMRT(1255-1452) (human) [5] = target: SMRT(1255-1452) (human) (UniProt Q9Y618); experiment: SPR; Biacore 3000, SMRT(1255–1452) amine-coupled to a CM5 chip (5500 RU), HDAC7 injected at 500 nM to 8 µM; 50 mM KH2PO4/K2HPO4 pH 6.5, 100 mM KCl, 1 mM DTT; two-step (three-state) model, overall apparent Kd
SMRT(1255-1452) (human) [6] = target: SMRT(1255-1452) (human) (UniProt Q9Y618); experiment: MST; Monolith NT.115, SMRT(1255–1452) labelled with NT647, HDAC7 or HDAC7 C535A/H541A 20 nM to 20 µM; 25 mM Tris pH 8.0, 10 mM MgCl2, 150 mM KCl, 0.5% Tween-20; room temperature
SMRT(1255-1452) (human) [7] = target: SMRT(1255-1452) (human) (UniProt Q9Y618); experiment: NMR titration; 15N-1H HSQC of labelled SMRT(1255–1452) titrated with unlabeled HDAC7 (1:0.72, 1:2.2, 1:3.8) or mixed with HDAC7 C535A/H541A (40 µM:144 µM, 1:3.6); peak intensities; 50 mM potassium phosphate, 100 mM KCl, 1 mM DTT, pH 6.5, 25 °C

## SMRT(1255-1452) E1376A (from UniProt Q9Y618 1255-1452) (domain or fragment)
[1]
  Kd: 34 µM

## SMRT(1255-1452) K1384A (from UniProt Q9Y618 1255-1452) (domain or fragment)
[1]
  Kd: 43 µM

## SMRT(1255-1452) L1379A (from UniProt Q9Y618 1255-1452) (domain or fragment)
[1]
  Kd: 7.5 µM

## SMRT(1255-1452) L1386A (from UniProt Q9Y618 1255-1452) (domain or fragment)
[1]
  Kd: 28 µM

## SMRT(1255-1452) R1360A (from UniProt Q9Y618 1255-1452) (domain or fragment)
[1]
  Kd: 19 µM

## SMRT(1255-1452) R1381A (from UniProt Q9Y618 1255-1452) (domain or fragment)
[1]
  Kd: 55 µM

## SMRT(1255-1452) V1372A (from UniProt Q9Y618 1255-1452) (domain or fragment)
[1]
  Kd: 37 µM

## SMRT(1255–1452) (from UniProt Q9Y618 1255-1452) (domain or fragment)
[2]
  Kd: 14.1 µM

## SMRT(1255–1452) R1381A (from UniProt Q9Y618 1255-1452) (domain or fragment)
[2]
  fold reduction of affinity against wild-type SMRT(1255–1452): 4 fold

B1: HDAC7 (residues 449–952), wild type, hexahistidine-tagged, in E. coli expression lysate (domain or fragment)
chain: LLWEQQRLAGRLPRGSTGDTVLLPLAQGGHRPLSRAQSSPAAPASLSAPEPASQARVLSSSETPARTLPFTTGLIYDSVMLKHQCSCGDNSRHPEHAGRIQSIWSRLQERGLRSQCECLRGRKASLEELQSVHSERHVLLYGTNPLSRLKLDNGKLAGLLAQRMFVMLPCGGVGVDTDTIWNELHSSNAARWAAGSVTDLAFKVASRELKNGFAVVRPPGHHADHSTAMGFCFFNSVAIACRQLQQQSKASKILIVDWDVHHGNGTQQTFYQDPSVLYISLHRHDDGNFFPGSGAVDEVGAGSGEGFNVNVAWAGGLDPPMGDPEYLAAFRIVVMPIAREFSPDLVLVSAGFDAAEGHPAPLGGYHVSAKCFGYMTQQLMNLAGGAVVLALEGGHDLTAICDASEACVAALLGNRVDPLSEEGWKQKPNLNAIRSLEAVIRVHSKYWGCMQRLASCPDSWVPRVPGADKEEVEAVTALASLSVGILAEDRPSEQLVEEEEPMNL
[3]
  fold reduction of binding against wild-type GST-SMRT (1358–1391): 4 fold

B2: HDAC7 catalytic domain (residues 449–952) (domain or fragment)
chain: LLWEQQRLAGRLPRGSTGDTVLLPLAQGGHRPLSRAQSSPAAPASLSAPEPASQARVLSSSETPARTLPFTTGLIYDSVMLKHQCSCGDNSRHPEHAGRIQSIWSRLQERGLRSQCECLRGRKASLEELQSVHSERHVLLYGTNPLSRLKLDNGKLAGLLAQRMFVMLPCGGVGVDTDTIWNELHSSNAARWAAGSVTDLAFKVASRELKNGFAVVRPPGHHADHSTAMGFCFFNSVAIACRQLQQQSKASKILIVDWDVHHGNGTQQTFYQDPSVLYISLHRHDDGNFFPGSGAVDEVGAGSGEGFNVNVAWAGGLDPPMGDPEYLAAFRIVVMPIAREFSPDLVLVSAGFDAAEGHPAPLGGYHVSAKCFGYMTQQLMNLAGGAVVLALEGGHDLTAICDASEACVAALLGNRVDPLSEEGWKQKPNLNAIRSLEAVIRVHSKYWGCMQRLASCPDSWVPRVPGADKEEVEAVTALASLSVGILAEDRPSEQLVEEEEPMNL
SMRT(1255-1452) (human) [4]
  Kd: 19 µM

B3: HDAC7 catalytic domain (residues 449–952), wild type, purified (domain or fragment)
chain: LLWEQQRLAGRLPRGSTGDTVLLPLAQGGHRPLSRAQSSPAAPASLSAPEPASQARVLSSSETPARTLPFTTGLIYDSVMLKHQCSCGDNSRHPEHAGRIQSIWSRLQERGLRSQCECLRGRKASLEELQSVHSERHVLLYGTNPLSRLKLDNGKLAGLLAQRMFVMLPCGGVGVDTDTIWNELHSSNAARWAAGSVTDLAFKVASRELKNGFAVVRPPGHHADHSTAMGFCFFNSVAIACRQLQQQSKASKILIVDWDVHHGNGTQQTFYQDPSVLYISLHRHDDGNFFPGSGAVDEVGAGSGEGFNVNVAWAGGLDPPMGDPEYLAAFRIVVMPIAREFSPDLVLVSAGFDAAEGHPAPLGGYHVSAKCFGYMTQQLMNLAGGAVVLALEGGHDLTAICDASEACVAALLGNRVDPLSEEGWKQKPNLNAIRSLEAVIRVHSKYWGCMQRLASCPDSWVPRVPGADKEEVEAVTALASLSVGILAEDRPSEQLVEEEEPMNL
SMRT(1255-1452) (human) [5]
  Kd: 2.1 µM
SMRT(1255-1452) (human) [6]
  Kd: 2.8 µM
SMRT(1255-1452) (human) [7]
  Kd: < 40 µM
